From patent US20100189657A1, “INTRAMOLECULARLY QUENCHED FLUOROCHROME CONJUGATES AND METHODS OF USE” (THE GENERAL HOSPITAL CORPORATION, priority 2006, published 2010) come the findings set out here.

Entries after “also recorded” stand apart in the source; their conditions may differ.

The series can be described thus: Aqueous solubility of the probes. It counts as physicochemical. The conditions noted are these: aqueous solutions. On the procedure: The absorption spectra of equimolar solutions of the probes based on the absorption peak of the free dye, CyTE-777 are shown in FIG. 4. […] The absorption band due to dye aggregation becomes slightly weaker with increasing PEG chain length. […] To determine if the aggregated fluorophores lead to quenching, fluorescence spectra of all the three probes were measured and compared to the fluorescence spectrum of an equimolar solution of CyTE-777 (FIG. 5).
These cysteine proteases are known to be important in biological processes and have similar substrate selectivity. […] The Leu-Arg dipeptide cathepsin S substrate was previously reported to be partially but not completely selective to cathepsin S. The selectivity observed for cathepsin S in the present study is higher than what was expected from the literature reports.
Consider `CC(C)C[C@H](NC(=O)CCNC(=O)CCOCCOCCOCCOCCNC(=O)CCSC1=C(/C=C/C2=[N+](CCCCS(=O)(=O)O)c3ccccc3C2(C)C)CCC/C1=C\C=C1\N(CCCCS(=O)(=O)O)c2ccccc2C1(C)C)C(=O)N[C@@H](CCCNC(=N)N)C(=O)NCCC(=O)NCCCC[C@H](NC(=O)CCNC(=O)[C@H](CCCNC(=N)N)NC(=O)[C@H](CC(C)C)NC(=O)CCNC(=O)CCOCCOCCOCCOCCNC(=O)CCSC1=C(/C=C/C2=[N+](CCCCS(=O)(=O)O)c3ccccc3C2(C)C)CCC/C1=C\C=C1\N(CCCCS(=O)(=O)O)c2ccccc2C1(C)C)C(=O)NCCCC[C@H](NC(=O)[C@H](CCCCNC(=O)CCNC(=O)[C@H](CCCNC(=N)N)NC(=O)[C@H](CC(C)C)NC(=O)CCNC(=O)CCOCCOCCOCCOCCNC(=O)CCSC1=C(/C=C/C2=[N+](CCCCS(=O)(=O)O)c3ccccc3C2(C)C)CCC/C1=C\C=C1\N(CCCCS(=O)(=O)O)c2ccccc2C1(C)C)NC(=O)CCNC(=O)[C@H](CCCNC(=N)N)NC(=O)[C@H](CC(C)C)NC(=O)CCNC(=O)CCOCCOCCOCCOCCNC(=O)CCSC1=C(/C=C/C2=[N+](CCCCS(=O)(=O)O)c3ccccc3C2(C)C)CCC/C1=C\C=C1\N(CCCCS(=O)(=O)O)c2ccccc2C1(C)C)C(=O)NCCC(=O)O` [CyPEG-1], for which the aqueous solubility result is on record as “practically insoluble”. With `CC(C)C[C@H](NC(=O)CCNC(=O)CCOCCOCCOCCOCCNC(=O)CCOCCOCCOCCOCCNC(=O)CCSC1=C(/C=C/C2=[N+](CCCCS(=O)(=O)O)c3ccccc3C2(C)C)CCC/C1=C\C=C1\N(CCCCS(=O)(=O)O)c2ccccc2C1(C)C)C(=O)N[C@@H](CCCNC(=N)N)C(=O)NCCC(=O)NCCCC[C@H](NC(=O)CCNC(=O)[C@H](CCCNC(=N)N)NC(=O)[C@H](CC(C)C)NC(=O)CCNC(=O)CCOCCOCCOCCOCCNC(=O)CCOCCOCCOCCOCCNC(=O)CCSC1=C(/C=C/C2=[N+](CCCCS(=O)(=O)O)c3ccccc3C2(C)C)CCC/C1=C\C=C1\N(CCCCS(=O)(=O)O)c2ccccc2C1(C)C)C(=O)NCCCC[C@H](NC(=O)[C@H](CCCCNC(=O)CCNC(=O)[C@H](CCCNC(=N)N)NC(=O)[C@H](CC(C)C)NC(=O)CCNC(=O)CCOCCOCCOCCOCCNC(=O)CCOCCOCCOCCOCCNC(=O)CCSC1=C(/C=C/C2=[N+](CCCCS(=O)(=O)O)c3ccccc3C2(C)C)CCC/C1=C\C=C1\N(CCCCS(=O)(=O)O)c2ccccc2C1(C)C)NC(=O)CCNC(=O)[C@H](CCCNC(=N)N)NC(=O)[C@H](CC(C)C)NC(=O)CCNC(=O)CCOCCOCCOCCOCCNC(=O)CCOCCOCCOCCOCCNC(=O)CCSC1=C(/C=C/C2=[N+](CCCCS(=O)(=O)O)c3ccccc3C2(C)C)CCC/C1=C\C=C1\N(CCCCS(=O)(=O)O)c2ccccc2C1(C)C)C(=O)NCCC(=O)O` [CyPEG-2] the entry was “satisfactory aqueous solubility; also recorded: much higher aqueous solubility”.

Regarding `CC(C)C[C@H](NC(=O)CCNC(=O)CCOCCOCCOCCOCCNC(=O)CCOCCOCCOCCOCCNC(=O)CCOCCOCCOCCOCCNC(=O)CCSC1=C(/C=C/C2=[N+](CCCCS(=O)(=O)O)c3ccccc3C2(C)C)CCC/C1=C\C=C1\N(CCCCS(=O)(=O)O)c2ccccc2C1(C)C)C(=O)N[C@@H](CCCNC(=N)N)C(=O)NCCC(=O)NCCCC[C@H](NC(=O)CCNC(=O)[C@H](CCCNC(=N)N)NC(=O)[C@H](CC(C)C)NC(=O)CCNC(=O)CCOCCOCCOCCOCCNC(=O)CCOCCOCCOCCOCCNC(=O)CCOCCOCCOCCOCCNC(=O)CCSC1=C(/C=C/C2=[N+](CCCCS(=O)(=O)O)c3ccccc3C2(C)C)CCC/C1=C\C=C1\N(CCCCS(=O)(=O)O)c2ccccc2C1(C)C)C(=O)NCCCC[C@H](NC(=O)[C@H](CCCCNC(=O)CCNC(=O)[C@H](CCCNC(=N)N)NC(=O)[C@H](CC(C)C)NC(=O)CCNC(=O)CCOCCOCCOCCOCCNC(=O)CCOCCOCCOCCOCCNC(=O)CCOCCOCCOCCOCCNC(=O)CCSC1=C(/C=C/C2=[N+](CCCCS(=O)(=O)O)c3ccccc3C2(C)C)CCC/C1=C\C=C1\N(CCCCS(=O)(=O)O)c2ccccc2C1(C)C)NC(=O)CCNC(=O)[C@H](CCCNC(=N)N)NC(=O)[C@H](CC(C)C)NC(=O)CCNC(=O)CCOCCOCCOCCOCCNC(=O)CCOCCOCCOCCOCCNC(=O)CCOCCOCCOCCOCCNC(=O)CCSC1=C(/C=C/C2=[N+](CCCCS(=O)(=O)O)c3ccccc3C2(C)C)CCC/C1=C\C=C1\N(CCCCS(=O)(=O)O)c2ccccc2C1(C)C)C(=O)NCCC(=O)O` [CyPEG-3], the aqueous solubility entry is given as “satisfactory aqueous solubility”.
